Results: the nanobody polyreactivity screen of Harvey et al. (2022)

test: yeast display, Sf9 membrane polyspecificity reagent, FACS + sequencing; frameworks hold sequencing errors
Method in brief: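 Using colony PCR, genes from sorted yeast display clones were amplified, then sequenced on MiSeq at 2 × 250 and filtered by CDR length. The clones had been stained with 10% biotinylated, detergent-solubilized Sf9 membrane reagent for 1 hour at 4 °C and sorted by FACS into low and high (top ~1%) gates on anti-HA and streptavidin fluorescence. Polyreactivity labels come from the gate of origin.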

Sequence | polyreactivity (PSR sort gate)
QVQLVESWGGLFQAGGSLRLSCAASGRTFSYNAMGWYRQAPGKERELVAAMTWRGSTTYYADSVKGRFTISRDHAKNTVYLQMNSLKPEDTAVYYCADATGQPYILDYWGQGTQVTVSS | low polyreactivity
QVQLVESWGGLVEAGGSLRLSCAASGRTFRSYAMVWYRQAPWKERELVAAISDGGSTNYADSVKGRFTISRDNAKNTVYLQMNSLKPEDTAVYYCAAVIFFAVFRFYYWGQGTQVTVSS | low polyreactivity
QVQLVESWGGLVHAGGSLRLSCAASGSIFDWYAMGWYRQAPGTERELVAAINEGGGSTYYADSVKGRFTISRDNAKNSVYLQMNSLKPEDTAVYYCAAGDYYLQDNYWGQGTQVTVSS | low polyreactivity
QVQLVESWGGLVHAGGSLRLSCAASGSTFAGYAMGWYRKATGTERELVATITYSGGSTYYADSVKGRFTISRDNAKNTVYLQMNSLKTEDTAVYYCAKKASYWWGYEYWGQGTQVTVSS | low polyreactivity
QVQLVESWGGLVQAGCSLRLSCAASGRTFRSYAMGWYRQATGKERELVAAISRNGGRTYYADSVKGRFTMSRDNAKYTVYSQMNSLKPEDTAVYYCAAVGDFDVYYWGQATQVTVSS | high polyreactivity
QVQLVESWGGLVQAGGRLRLSCAASGRIFWRYAMGWYRQAPGKERELVAAISGRGASTYYADSVKGRFTISRDNAKNTVYLQMNSLKPEDTAVYYCAASLRYRYRYYASDYGYWGQGTQVTVSS | high polyreactivity
QVQLVESWGGLVQAGGSLRLICAASGRIFYPYAMGWYRQAPGKERELVASITSGGGSYYADSVKGRFTISRDNAKNTVYLQMNSLKPEDTAVYYCAAPYITPYGTYVFSSVYWGQGTQVTVSS | low polyreactivity
QVQLVESWGGLVQAGGSLRLSCAASGFIFSSYGMGWYRQAPGKERELVADISGGGSTNYADSVKGRFTISRDNAKNTVYLQMISLNPEDTAVYYCNAQLIRSAAYDYWGQGTQVTVSS | low polyreactivity
QVQLVESWGGLVQAGGSLRLSCAASGFTFDYNGMGWYRQAPWKERELVAGIRWSGGSTYYADSVKGRFTISRDNAKNTVSLQMNSLKPEDTAFYYCAADTLPAEYEYDYWGQGTQVTVSS | low polyreactivity
QVQLVESWGGLVQAGGSLRLSCAASGFTFVSYAMGWYRQAPGKERELVAAISKRGGSTSYADSVKGRFTISRDNAKNTVYLQMNSLKPEDTAVYYCYNRSYAWSPHVDYWGQGTQVTVSS | high polyreactivity
QVQLVESWGGLVQAGGSLRLSCAASGGTFRKNTMGWYRQAPGKERELVAAITRRADRTYYADSVKGRFTISRDNAKHTVYLQMNSLKPEDTAVYYCNAPPPPTKVGGYDYWGQGTQVTVSS | high polyreactivity
QVQLVESWGGLVQAGGSLRLSCAASGLTFVKNAMGWYRQAPGKERELVAAITRTGGSTYYADSVKVRFTISRDNAKNTFYLQMNSLKPEDPAVYYCASRTPSPRRTKTAVDYWGQGTQVTVSS | high polyreactivity
QVQLVESWGGLVQAGGSLRLSCAASGRTFDGNAMGWYRQAPGKEGEFVATISTDGGSTHYADSVKGRFTISRDNAKNTVYLQMNSLKPEDTAVYYCAADTPWYDDNYDYWGQGTQVTVSS | low polyreactivity
QVQLVESWGGLVQAGGSLRLSCAASGRTFYSNAMGWYRQARGNERELVAAISRSGGTTYYADSVKGRFTISRDNAKNTVYLLMNSLKPEDTAVYYCNTLRYGTTGKYDYWGQGTQVTVSS | high polyreactivity
QVQLVESWGGLVQAGGSLRLSCAASGRTFYYYTMGWYRQAPGKEREFVAAISWSGGGTYYADSVKGRFTISRDNAKNTDYLQMNILKPEDTAVYYCATGPRIRYDYWGQGTQVNVSS | high polyreactivity
QVQLVESWGGLVQAGGSLRLSCAASGSIFDYNAMGWYRQAPGKERELVAAISSGGSTNYADSVKGRFTISRDNAKNTVYLQMNSLKPEDTAVYYCNTGLYWLGYWPDDYWGQGTQVTVSS | low polyreactivity
QVQLVESWGGLVQAGGSLRLSCAASGSILYYYVMGWYRQAPGKERELVAAINSGGNTNYADSVKGRFTISRDNAKNTVYLQMNSLKTVDTAVYYCATASGDGVRTDFGNEYDYWGQGTQVNVSS | low polyreactivity
QVQLVESWGGLVQAGGSLRLSCAASGSNFYTYAMGWYRQAPGKERDFVAAITWSGGRTYYADSVKGRFTISRDNAKNSVYLQMNSLKPEDTAVYYCAATSWWATTGFDYWGQGTQVTVSS | low polyreactivity
QVQLVESWGGLVQAGGSLRLSCAASGSTFVAYAMGGYRQAPGKEREFVAGISVRGGSTYYADSVKGRFTISRDNAKNTVYLQMNSLKPEDTAVYYCAARRVDTRVHVRYRYYYWGQGTQVTVSS | high polyreactivity
QVQLVESWGGLVQAGGSLRLSCAASGSTISANALGWDRQAPGTEREWVASISRRGGSPYYADSVKGRFTISRDKATNTVYLQMNSLKPEDTAVYYSGAVFRYYARTFDYWGQGTQVSVSS | high polyreactivity
QVQLVESWGGLVQAGGSLRLSCDASGSTFIPKDMGWYRQAPGKERELVAAITVSGDDTYYADSVKGRFTISRDNAKNTVYIQMNILKPEVTAVYYCAAEWGLYVGQYEYCGQGTQVTVSS | low polyreactivity
QVQLVESWGGLVQAGGSLRLSCDASGSTLYHNVMGWYRQAPGKERDLVASIDTGDSTNYADSVKGRFSISRDNAKNTVYLQMNSLKPEDTAVSYCNADSYTALNNRGYDYWGLGTQVTVSS | low polyreactivity

Sequence | polyreactivity (PSR sort gate)
QVQLVESWGGLVQAGGSLRLSSPASGFTFFYYAMGWYRPAPGKERELVAAITSGGSTKNADSVKGRFTISRDNAKNSVYLQMNSLKPEDTAVYYCAARVRISGSPRILYNYWGQGTQVTVSS | high polyreactivity
QVQLVESWGGLVQAGGTLSLSCADSGLIFYFYDRGWYRQAPGKESEFVATISSTGGSTYYADSVKGRFTISRDNAKNTVYLQMNSVKPEDTAVYVCADRGWFPGFRYDYWGQGTQVTVSS | low polyreactivity
QVQLVESWGGLVQAGRSHRLSCAASGIIFDGNALGWYRQAPRKEREMVAAISSSGARTYYADSVKGRFTISRDNAKNSVYLLMNSLKPEDTAVYYCNAAYFNWYTHVWNDYWGQGTQVTVSS | high polyreactivity
QVQLVESWGGLVQSGGSLRLICAASGSTNQYNAMGWYRQAPGKERELVAAISLSGATTYYADSVKGRCTISRDPAKNTVYLQMNIQKPEDTSVYYCAADFGWFYDCVAVWFIRILGDYWGQGTQVTVSS | low polyreactivity
QVQLVESWGVLVQAGGSLRLSCAASGSIFTYYTMGWYRPEPGKERDFVARISSGGSTNYADSVKGRFTISRDNAMNTVYLQMNSLKPEDTAVYYCAAVSSYSPYRLTYYYWGQGTQVTVSS | high polyreactivity
QVQLVESWGVLVQAGGSLRLSCAAYGSIFRLYAMGSYRTAPGTARELVAAITSGDSTNYADSVKGRFTISRDNAKNTVYLQMNSLKPEDTAVYYCNSGRISVRVTSEQYAYHEYYYWGQGTQVTVSS | high polyreactivity
QVQLVESWRGLDQAGGSLRLICSASGGIFKGYSMGWFRQAPGKERELVAVISSRVGSTYYADSLKGRFTISRDNEKNTVYLQMNSQKPEHTAVYYCAKRRYAAVNYNYWGQGTQVTVSS | high polyreactivity
QVQLVETAGGLVKAGCSLRLSCAASGRIFYIYAMAWYRQSPGKESELLAAISTGGGGTYYADSVKGRFTISRDNAKNTVYLQMNSLKPEDTAVYYCAATSPLSLDEDYWGQGTQVTVSS | high polyreactivity
QVQLVETGAGIVQAGGILRLSCAASGSIFQGNAIGWYRQAPGKERELVAAISGGTSTYYADSEKGRFTISRDNAKNTVYLEMNSLKPEDTAVYYCAARFYGHPYWYDYWGLGTQVTVSS | low polyreactivity
QVQLVETGAGLVQAGGSLRLSSAASGRTLYPYAMGWSRQSPGNERELVAAISSRGGSTYYADSVKGRFTISRDIAKNTVYLQMNSLKPEDTAVYYCAKTYRKILSITGDVPWTDYYWGQGTQVTVSS | low polyreactivity
QVQLVETGGCLVQAGGSLRLSCAASGFIFYIYAMGWYRQAPGKERELVAAITSGGSTYYADSVKGRFTITRDNAKNTVYLQMNSLKPDDTAVYYCASESYYGYDYWGQGTQVTVSS | low polyreactivity
QVQLVETGGGIVQAGGRLRLSCAASGFTFYANTMGWYRQAPGKERELVATIRSTGSTKYADSVKGRFTISRDNAMNTVYLQMNSLNPEDTAVYYCAKRDRYYGVAVEGIRYDYWGQGTQVTVSS | high polyreactivity
QVQLVETGGGIVQAGGSLRLSCAASGFTFFRNAMGWYRQAPGKERELVAAISGSGGSTYYADSVKGRFTISRDNAKNKVYLQMNSLKPEDTAVYYCNAQKQIREPGNERLNYWGQGTQVTVSS | low polyreactivity
QVQLVETGGGIVQAGGSLRLSCAASGSTFDGYVMGWYRQEPGKERELVAAISGSGGSTYYADSVKGRFTISRDNAKNTVYFELYSLKPEDTSVYYCAADSWWYDDYSEGDYWGQGTQVTVSS | low polyreactivity
QVQLVETGGGIVQAGGSLSLSCAASGRIFSPYAMGWYRQAPGKERELVAAISYDDGITYYADSVKGRFTISRDNAKNTVYLQMISLKPEDTAVYYCAADSVTRPAGDYWGQGTQVTVSS | low polyreactivity
QVQLVETGGGIVQARGRLRLSCAASVITFTGYAMGWYRPAPGKERELVAAITSGGGRTYYADSVKGRFTISRDNAKNTVYLLMNSLKPEDTAVYYCNARGQSRYGYWGQGTQVTVSS | high polyreactivity
QVQLVETGGGLDQAGGSLRLSCAASGRTFLLYAMGWYRQAPGKERELVARITGRGGRTYYADSVKGRFTISRDNAKNTVYLQMNSLKPEDTAVYYCNAKGYQGQWERYDYWGQGTEVTVSS | high polyreactivity
QVQLVETGGGLDQAGVSLRLSCAASGSIFGYNDMGWYRQAPGKERELVAAIDCSDDITYYADSVKGRFTISRDNAKNTVYLQMYSLKPEETAVYYCAAVYYYYQYWAHTYYAGMEYWGQGTQVTVSS | high polyreactivity
QVQLVETGGGLVKAGGSLRLSCAASGITFSVYTMGWDRQAPGKERELVASITRSVGSTYYADSVKGRFTISRDNAKNTVYLQMNSLKPEDTAVYYCAARRTVVTGRYYWGQGTQVTVSS | high polyreactivity
QVQLVETGGGLVKAGGSLRLSSAASGSIFVYYVMGWYRQAPGKERELVAAINSDGDGTYYADSVKGRFTISRDNAKNTVYLQMNSLKPEDTAVYYCAASAFTGVDTYGYGGQGTQVTVSS | low polyreactivity
QVQLVETGGGLVPAGGSLRLSCAASGSTFQRYAMGWYRQAPGKERELVAAITWSGGSTKYADSVKGRFTISRDNAKNTVYLQMNSMKPEDTAVYYCARTYGSSRWGQGTQVTVSS | low polyreactivity
